Reference: patent publication US5583112A, “Saponin-antigen conjugates and the use thereof” (priority 1992, dated 1996)

Assays:
anti-lysozyme IgG = assay: Immunization of mice with QA-21-lysozyme conjugate (total anti-lysozyme IgG); assay type: in vivo, C57bl/6 mice; conditions: days 0 and 14 intradermal; bled day 21
Method: The QA-21-lysozyme from Example 18 conjugate was used to immunize mice (C57bl/6), with and without added QA-21 as adjuvant. Ten nice (9 weeks of age at the beginning of the immunization) were immunized per group. Immunizations were made intradermally at day 0 and day 14 with a total volume of 0.2 ml (PBS buffer, pH 7). The vaccines contained the following dosages of antigen and adjuvant:
The mice were bled on day 21 and the anti-lysozyme IgG titers were determined. Microtitre plates (in the alternative, Co-bind® plates from Micromembranes may be used) were incubated at 4° C. overnight with 10 μg/ml of lysozyme in about 100 μl of PBS. The plates were then washed two times with PBS and blocked for one hour with 150 μl/well of 10% normal goat serum at room temperature. The plates were then washed two times with 0.05% Tween-20 in water.
The mice sera were incubated with the lysozyme coated plates as follows. The individual serum samples (10μl) diluted with 10% normal goat serum in PBS to make 100 μl, as well as serial dilutions thereof (1:10) were added to the wells and incubated for 1 hour at room temperature. The wells were then washed four times with 0.05% Tween-20. […] The conjugate was then detected by tetramethylbenzidine substrate (Bos, E.S. et al., J. Immunoassay 2:187 (1981)). After incubation, the OD450 was read. […]

[1] = tested on: anti-lysozyme antibodies (IgG1, IgG2B, IgG2A, IgM, IgG3); assay: Isotyping of anti-lysozyme antibodies; assay type: in vivo, C57bl/6 mice; conditions: FIG. 22
Method: Next, the anti-lysozyme antibodies produced by each group of mice were isotyped. Microtitre plates were incubated at 4° C. overnight with 10 μg/ml of lysozyme in about 100 μl of PBS. The plates were then washed two times with PBS and blocked for one hour with 150 μl/well of 10% normal goat serum in PBS at room temperature. The plates were then washed two times with 0.05% Tween-20 in water.
The mice sera were incubated with the lysozyme coated plates as follows. The serum samples were tested in separate lanes for IgG1, IgG2B, IgG2A, IgM and IgG3. The individual serum samples (10 μl) were diluted with 10% normal goat serum in PBS to make 100 μl, and serial dilutions thereof (1:10) were added to the wells and incubated for 1 hour at room temperature. The wells were then washed four times with 0.05% Tween-20. […] The conjugates were then detected by adding 100 μl per well of 1 mg/ml p-nitrophenylphosphate in 0.1M borate, pH 9.0. After incubation for 6 and 24 hours at room temperature, tile OD410 was read.

lysozyme-QA-21 conjugate: QA-21 coupled via glucuronic acid to lysozyme, 1:1 molar ratio
Anti-lysozyme antibody response (immunogenicity) (anti-lysozyme IgG): higher antibody titer than either of the groups receiving free QA-21

lysozyme: a poorly immunogenic, very hydrophilic protein
Antibody isotypes produced [1]: only IgM antibodies were produced
Anti-lysozyme antibody response (immunogenicity) (anti-lysozyme IgG): poorly immunogenic
